This experiment concerns the target unmodified H3 peptide (UniProt P59226). In words: ITC; FIG. 3A. In general terms: ITC needs no label: the signal is the heat of the interaction.

SHH1 SAWADEE domain (residues 125-258), sequence (Q9XI47 125-258): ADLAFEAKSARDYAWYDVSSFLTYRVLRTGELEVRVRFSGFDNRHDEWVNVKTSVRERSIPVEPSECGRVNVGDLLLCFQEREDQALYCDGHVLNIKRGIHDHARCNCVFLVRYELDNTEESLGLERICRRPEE

“SHH1 SAWADEE domain (residues 125-258) (from UniProt Q9XI47 125-258)”: the Kd stood at 34.8 µM.

In general, Kd refers to the free concentration of one partner at which half of the binding sites on the other are occupied at equilibrium, for simple one-to-one binding.

The record behind these values is patent US20160017348A1.
